Assay results taken from article PMC5014688 (Structure (London, England : 1993), 2016).
Values belong to the molecule of their own block, whether it stands above or below them. Ends that are not written are not given here. * marks the point of attachment. Crotonyl(E) = C/C=C/C(=O)*

Columns and labels:
[1] = target: Histone H3K4cr peptide (Homo sapiens) (UniProt P68431); assay: ITC; conditions: cited from earlier work
AF9 YEATS domain = target: T1, AF9 YEATS domain (Homo sapiens, UniProt P42568); assay: 2D 1H-15N HSQC NMR binding to AF9 YEATS domain; conditions: 30°C, H3 peptide added to AF9 YEATS domain
T1 sequence (P42568 1-138): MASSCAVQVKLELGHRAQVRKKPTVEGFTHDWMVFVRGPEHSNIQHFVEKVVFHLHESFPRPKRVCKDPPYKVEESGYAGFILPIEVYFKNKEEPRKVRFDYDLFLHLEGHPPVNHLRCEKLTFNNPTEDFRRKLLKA

[2] = target: Histone H4K5ac/K8ac peptide (Homo sapiens) (UniProt P62805); conditions: cited from earlier work
[3] = target: Histone H4K5cr/K8cr peptide (Homo sapiens) (UniProt P62805); conditions: cited from earlier work
[4] = target: T2, AF9 YEATS domain (residues 1–138) (human, UniProt P42568 1-138); assay: ITC
T2 sequence (looked up): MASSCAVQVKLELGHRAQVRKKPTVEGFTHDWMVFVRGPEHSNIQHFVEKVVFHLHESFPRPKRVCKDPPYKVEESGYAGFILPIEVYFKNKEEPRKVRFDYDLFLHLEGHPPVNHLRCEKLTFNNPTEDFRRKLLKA

Molecule: Sirt3 (from UniProt Q9NTG7)
- Kd [1]: 25 µM

Molecule: TKQTAR-K-SSGGKA [unmodified H3 peptide]
- changes of protein backbone amide resonances / binding (AF9 YEATS domain): did not cause any protein resonance changes

Molecule: TAF1 BD2 (from UniProt P21675)
- Kd [2]: 50 µM
- Kd [3]: 100 µM

- binding result [4]: binds
B1: histone H3K27cr peptide (residues 21–33) (peptide)
peptide: ATKAARK(Crotonyl(E))SAPATG

- binding result [4]: binds
B2: histone H3K27ac peptide (residues 21–33) (peptide)
peptide: ATKAARK(Ac)SAPATG
